Measured values as given in patent US10876098B2, “Polynucleotide, host cell and a method to recombinantly produce the protein encoded by said polynucleotide having peroxygenative activity” (CONSEJO SUPERIOR DE INVESTIGACIONES CIENTIFICAS (CSIC), priority 2015, dated 2020).

How the values were obtained:
[1] = cited from earlier work
[2] = target: T1, Agrocybe aegerita peroxygenase AaeUPO1 variant JaWa (PaDa-I + G241D, R257K: V57A, L67F, V75I, G241D, I248V, R257K, F311L), SEQ ID NO: 24 (Cyclocybe aegerita, UniProt B9W4V6, F354L/G284D/I291V/L110F/R300K/V100A/V118I); experiment: Kinetic constants, JaWa variant
T1 sequence (B9W4V6 44-371 V100A/L110F/V118I/G284D/I291V/R300K/F354L): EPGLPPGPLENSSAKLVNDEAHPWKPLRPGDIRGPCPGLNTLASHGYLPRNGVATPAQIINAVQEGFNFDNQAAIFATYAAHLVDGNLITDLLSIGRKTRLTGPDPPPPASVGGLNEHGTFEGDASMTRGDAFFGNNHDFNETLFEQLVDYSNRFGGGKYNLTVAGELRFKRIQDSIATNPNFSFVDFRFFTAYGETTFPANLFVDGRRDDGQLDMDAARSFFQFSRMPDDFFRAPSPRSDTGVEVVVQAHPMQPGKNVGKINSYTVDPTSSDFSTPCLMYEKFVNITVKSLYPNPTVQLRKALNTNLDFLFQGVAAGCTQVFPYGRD
Description: In order to calculate the values of Km and kcat, values of Vmax were represented at substrate concentrations and the hyperbole function was adjusted (using SigmaPlot 10.0, wherein the parameter a is equal to kcat and the parameter b, to Km).
Additionally, the kinetic values of the two variants were determined using substrates of both peroxygenase and peroxidase activity (Table 2), as described in the section on materials and methods.

[3] = Activity of W24F variants on peroxidase substrates, flask culture supernatants; format: biochemical; conditions: all the tested substrates, relative to respective parental
Description: (§1) FIG. 5 W24F variants obtained by means of directed mutagenesis. A) Model built on the crystal structure of the AaeUPO1 enzyme (PDB access number: 2YOR), comprising the mutations of the JaWa variant as well as the W24F modification with respect to wild AaeUPO1. The model is shown without a surface, with a transparent surface and with an opaque surface, showing position W24. B) Activity of the W24F variants using different substrates with respect to their respective parentals, relativised to the PaDa-I activity. The experiments were carried out using 100 mL flask culture supernatants.

[4] = Activity of W24F variants on peroxygenase substrates, flask culture supernatants; format: biochemical; conditions: relative to respective parental
Description: as §1

[5] = Total turnover number (TTN) for synthesis of 5′-hydroxypropranolol from propranolol; format: biochemical
Description: FIG. 15 Calculation of the total turnover number (TTN) of AaeUPO and SoLo.
(§2) The reactions were analysed by means of chromatography in reverse phase (HPLC). The equipment was composed of a tertiary pump (Varian-Agilent Technologies, USA) coupled to an autosampler (Merck Millipore, MA, USA); for the separation, a Zorbax Eclipse plus C18 column (15 cm×4.6 cm) at 40° C. was used and the detection was performed using a photodiode detector (PDA) (Varian, Agilent Technologies, USA). The mobile phase selected was a gradient from 10% methanol and 90% ddH2O (in both cases with 0.1% of acetic acid) up to 90% methanol and 10% ddH2O at a flow rate of 0.8 mL/min. The reaction was quantified at 280 nm (based on HPLC standards). […] The standard deviations were less than 5% in all cases.

[6] = 4-AAP assay with propranolol in the presence of ascorbic acid (peroxygenase activity); format: biochemical; conditions: propranolol, in the presence of ascorbic acid
Description: (§3) FIG. 9 Assay of 4-AAP (4-aminoantipyrine) with different pure UPO variants (AaeUPO1, PaDa-1 and JaWa). […] Each reaction was performed in triplicate.
(§4) The mother plates were centrifuged (Eppendorf 5810R centrifuge, Germany) for 10 minutes at 3,500 RPM and 4° C. 20 μL of supernatant of these mother plates were transferred to two replica daughter plates with the help of a Freedom EVO liquid-handling robot (Tecan, Switzerland).
(§5) Without ascorbic, the plates were incubated for 30 minutes and with ascorbic for 60 minutes. […] The plates were briefly agitated and absorbance measured at 530 nm, using a plate reader for such purpose ([…]ax Plus 384, Molecular Devices, USA). The values were normalised against the parental of each plate. To rule out false positives, re-screenings were carried out, in addition to a third re-screening wherein kinetic stability was determined (T50) (P. Molina-Espeja, et al. Appl. Environ. Microbiol. 2014. 80, 3496-3507).

[7] = 4-AAP assay with propranolol in the absence of ascorbic acid (peroxidase activity on the product); format: biochemical
Description: as §3, §4, §5

[8] = Turnover with 5′-hydroxypropranolol as substrate, HPLC; format: biochemical; conditions: 0.03 μM enzyme, 0.4 mM 5′-hydroxypropranolol, 2 mM H2O2, absence of ascorbic acid
Description: FIG. 14 Turnover rates of AaeUPO, JaWa and SoLo. […] The disappearance of the product 5′-hydroxypropranolol can be observed due to the formation of its corresponding quinone by means of the peroxidase activity of the enzyme.
as §2

[9] = Thermostability assay (T50), culture supernatants, residual activity with ABTS; format: physicochemical; conditions: versus PaDa-I variant
Description: An individual S. cerevisiae colony was selected with the corresponding clone (grown in a SC drop-out minimal medium plate: 100 mL of 6.7% yeast nitrogen base, 100 mL of 19.2 g/L uracil-free amino acid supplement, 100 mL of 20% glucose, 1 mL of 25 g/L chloramphenicol and ddH2O up to 1,000 mL) was inoculated in 2 mL of selective minimal medium (as in the SC plate medium, but with 20 g of bacto agar and rafinose instead of galactose) and was incubated for 48 hour at 30° C. and 220 RPM. An aliquot of this culture was taken such that, upon inoculating it in 5 mL of new minimal medium, optical density at 600 nm would have a value of 0.25 (optical density, OD600=0.25). This starter was incubated until completing two full growth cycles (between 6 and 8 hours), at which time 1 mL of cells were taken to inoculate 9 mL of expression medium in a 100 mL flask (OD600=0.1). This culture of each clone was incubated for 72 hours at 25° C. and 220 RPM (at peak UPO activity; OD600=25-30), the cells were separated by centrifugation (10 minutes at 4,500 RPM and 4° C.) and supernatant was filtered (using a glass and nitrocellulose filter with a pore size of 0.45 μm). Appropriate dilutions of the supernatants were prepared so that aliquots of 20 μL would give rise to a linear response in kinetic mode. 50 μL of supernatant were used for each point in a temperature gradient created by means of thermocyclator, from 30 to 80° C. After incubating for 10 minutes, the aliquots were cooled in ice for 10 minute and tempered at room temperature for 5 minutes. […] The thermostability values were calculated in accordance with the ratio between the residual activities incubated at different temperatures and the value of initial activity at room temperature. The value of T50 was determined as the value of the temperature at which the protein loses 50% of it initial activity after incubating for 10 minutes.
An individual S. cerevisiae colony was selected with the corresponding clone (grown on a SC drop-out minimal medium plate: 100 mL of 6.7% yeast nitrogen base, 100 mL of 19.2 g/L uracil-free amino acid supplement, 100 mL of 20% glucose, 1 mL of 25 g/L chloramphenicol and ddH2O up to 1,000 mL), was inoculated in 3 mL of selective minimal medium (like the SC plate medium, but with 20 g of bacto agar and rafinose instead of galactose) and incubated for 48 hours at 30° C. and 220 RPM. […] The thermostability values were calculated in accordance with the ratio between the residual activities incubated at different temperatures and the value of initial activity at room temperature. The value of T50 was determined as as the temperature value at which the protein loses 50% of its initial activity after incubating for […].

[10] = Propranolol transformation reaction analysed by HPLC-PDA; format: biochemical; conditions: absence of ascorbic acid
Description: FIG. 13 Chromatogram showing the enzyme reactions.
as §2

Molecule: c1ccc2ccccc2c1 [naphthalene]
- solubility of the naphthalene in water [1]: 31.7 µg/mL

Molecule: OO [H2O2, hydrogen peroxide]
- Km ([2]; H2O2, benzyl alcohol as substrate at saturation, pH 7.0): 1250 µM

Molecule: c1ccc2ccccc2c1 [Naphthalene, naphthalene]
- decrease in Km ([2]; JaWa vs PaDa-I, naphthalene): 3 times

Molecule: CC(C)NCC(O)COc1cccc2c(O)cccc12 (centres unmarked) [5′-hydroxypropranolol]
- increase in kcat (up to) ([2]; summary of advantages, variant not named, matches JaWa vs PaDa-I): up to 3.6 fold

B1: PaDa-I-W24F: W24F variant obtained from the PaDa-I mutant, SEQ ID NO: 30 (protein)
chain: MKYFPLFPTLVYAVGVVAFPDYASLAGLSQQELDAIIPTLEAREPGLPPGPLENSSAKLVNDEAHPFKPLRPGDIRGPCPGLNTLASHGYLPRNGVATPAQIINAVQEGFNFDNQAAIFATYAAHLVDGNLITDLLSIGRKTRLTGPDPPPPASVGGLNEHGTFEGDASMTRGDAFFGNNHDFNETLFEQLVDYSNRFGGGKYNLTVAGELRFKRIQDSIATNPNFSFVDFRFFTAYGETTFPANLFVDGRRDDGQLDMDAARSFFQFSRMPDDFFRAPSPRSGTGVEVVVQAHPMQPGRNVGKINSYTVDPTSSDFSTPCLMYEKFVNITVKSLYPNPTVQLRKALNTNLDFLFQGVAAGCTQVFPYGRD
- reduction of peroxidase activity by the W24F mutation [3]: 60%
- reduction in the activity on naphthalene and NBD by the W24F mutation [4]: 50%

B2: JaWa-W24F: W24F variant obtained from the JaWa mutant, SEQ ID NO: 32 (protein)
chain: MKYFPLFPTLVYAVGVVAFPDYASLAGLSQQELDAIIPTLEAREPGLPPGPLENSSAKLVNDEAHPFKPLRPGDIRGPCPGLNTLASHGYLPRNGVATPAQIINAVQEGFNFDNQAAIFATYAAHLVDGNLITDLLSIGRKTRLTGPDPPPPASVGGLNEHGTFEGDASMTRGDAFFGNNHDFNETLFEQLVDYSNRFGGGKYNLTVAGELRFKRIQDSIATNPNFSFVDFRFFTAYGETTFPANLFVDGRRDDGQLDMDAARSFFQFSRMPDDFFRAPSPRSDTGVEVVVQAHPMQPGKNVGKINSYTVDPTSSDFSTPCLMYEKFVNITVKSLYPNPTVQLRKALNTNLDFLFQGVAAGCTQVFPYGRD
- reduction of peroxidase activity by the W24F mutation [3]: 60%
- reduction in the activity on naphthalene and NBD by the W24F mutation [4]: 50%

B3: SoLo: JaWa variant with added mutation F191S, SEQ ID NO: 42 (protein)
chain: MKYFPLFPTLVYAVGVVAFPDYASLAGLSQQELDAIIPTLEAREPGLPPGPLENSSAKLVNDEAHPWKPLRPGDIRGPCPGLNTLASHGYLPRNGVATPAQIINAVQEGFNFDNQAAIFATYAAHLVDGNLITDLLSIGRKTRLTGPDPPPPASVGGLNEHGTFEGDASMTRGDAFFGNNHDFNETLFEQLVDYSNRFGGGKYNLTVAGELRFKRIQDSIATNPNFSFVDFRFSTAYGETTFPANLFVDGRRDDGQLDMDAARSFFQFSRMPDDFFRAPSPRSDTGVEVVVQAHPMQPGKNVGKINSYTVDPTSSDFSTPCLMYEKFVNITVKSLYPNPTVQLRKALNTNLDFLFQGVAAGCTQVFPYGRD
- TTNs, With ascorbic acid ([5]; 0.03 μM enzyme, propranolol, 2 mM H2O2 added every 10 minutes, 4 mM ascorbic acid): 62,000
- TTNs, Without ascorbic acid ([5]; 0.03 μM enzyme, propranolol, 2 mM H2O2 added every 10 minutes, absence of ascorbic acid): 45,000
- increase in TTN for synthesis of 5′-hydroxypropranolol versus wild AaeUPO ([5]; absence of antioxidants): 15 fold
- peroxygenase activity on microplate higher than its parental (JaWa) [6]: 30%
- decrease in peroxidase activity relative to parental (JaWa) [7]: more than two fold
- 5′-hydroxypropranolol maintained without oxidising [8]: approximately 50%
- increase in thermostability (T50) with respect to PaDa-I [9]: 2 °C
- regioselectivity against 5′-hydroxypropranolol ([10]; 0.03 μM enzyme, 4 mM propranolol, 2 mM H2O2): 99%
- amount of 5′-hydroxypropranolol produced ([10]; compared among AaeUPO, PaDa-I, JaWa, SoLo): produce the largest amount of 5′-hydroxypropranolol
